Patent US20060105398A1, “Methods of identifying compounds that modulate igg mediated mast cell activation” (Rigel Pharmaceuticals, Inc, priority 2002, published 2006)

Tested on: FcγRI activation of cultured human mast cells (CHMC)
Assay: Priming of mast cells, tryptase activity in supernatant after Fcγ activation with IgG and anti-IgG
Format: cell-based
Conditions: IL-4 absent or present in priming solution; IgE primed mast cells; human IgG3 and rabbit anti-human IgG (FIG. 1A, 1B)
Procedure: Priming of mast cells is carried out by seeding the cells on Day 0 at 3.5×10^5 cells/mL in culture media plus SCF (200 ng/mL), IL-6 (200 ng/mL), IL-4 ([…]), IgE (200 ng/mL), and IgG3 (200 ng/mL).
Activation or stimulation of cells is done on Day 3 by centrifuging the cells down and resupending them at 1.5×10^3 cells/mL in modified tyrodes (MT: 137 mM NaCl, 2.7 mM KCI, 1.8 mM CaCl2, 5.6 mM glucose, 20 mM Hepes (pH 7.4), 0.1% Bovine Serum Albumin (Sigma A4503)), with or without rabbit anti-human IgG (200 ng/mL final conc.), for 30 minutes at 37° C. (see Demo, S. D., Cytometry. 36(4):340-348 (1999)).
Degranulation is measured by centrifuging down the sample, and harvesting the supernatant and measuring tryptase activity. The tryptase assays are performed under standard conditions (25 uL supernatant added to 100 uL of 10 uM tryptase substrate [20 mM stock solution of Z-Ala-Lys-Arg-AMC2TFA (Enzyme systems Products, Catalog No. AMC-246) diluted 1:2000 in tryptase assay buffer [[…] (pH 7.5), 10% w/v Glycerol, […], 0.01% NaN3] for 30 min at 37° C. The reactions are read in plate reader (Wallac, Victor 2, 1420 Multilabel Counter).

## IL-4: cytokine added to the priming solution (20 ng/mL)
  effect on activation (tryptase activity in the supernatant): did not appear to substantially affect activation
